In article PMC4737141:

Biological target: Recombinant human Tipin-His6 (human) (UniProt Q9BVW5)
Test: SPR

UniProt Q9BVW5, sequence (Q9BVW5 whole entry): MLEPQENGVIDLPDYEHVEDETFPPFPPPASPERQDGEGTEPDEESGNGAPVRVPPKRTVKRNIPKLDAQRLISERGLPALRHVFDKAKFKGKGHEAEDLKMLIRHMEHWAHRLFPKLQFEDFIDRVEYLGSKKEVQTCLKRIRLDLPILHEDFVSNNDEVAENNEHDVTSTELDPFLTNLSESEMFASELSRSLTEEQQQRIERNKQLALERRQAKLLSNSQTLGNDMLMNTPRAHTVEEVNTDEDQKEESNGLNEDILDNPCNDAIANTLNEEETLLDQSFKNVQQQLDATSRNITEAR

For “Recombinant human DDX11-3xFLAG (from UniProt Q96FC9 1-970) (enzyme)”, the Kd was 655 nM.
